Assay results taken from US20090170166A1.

Molecular target: T1, recombinant uracil-DNA-glycosylase inhibitor (rUgi), P14739
T1 chain: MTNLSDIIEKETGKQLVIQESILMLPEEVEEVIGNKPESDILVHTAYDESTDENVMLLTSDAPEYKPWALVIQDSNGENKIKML

B1: uracil-DNA-glycosylase (UDG) (protein)
chain: ANELTWHDVLAEEKQQPYFLNTLQTVASERQSGVTIYPPQKDVFNAFRFTELGDVKVVILGQDPYHGPGQAHGLAFSVRPGIAIPPSLLNMYKELENTIPGFTRPNHGYLESWARQGVLLLNTVLTVRAGQAHSHASLGWETFTDKVISLINQHREGVVFLLWGSHAQKKGAIIDKQRHHVLKAPHPSPLSAHRGFFGCNHFVLANQWLEQRGETPIDWMPVLPAESE
In the case of B1, the “digestion of DNA-dUTP by UDG 1/35 (agarose gel), without and after 10 min at 90 C” value is reported as “the two dilutions of Ugi indeed inhibit the digestion of DNA by UDG (lanes D and G); after a treatment of 10 minutes at 90° C., the Ugi remains active because it still inhibits the UDG (lanes J and M)”, the “digestion of DNA-dUTP by UDG 1/35, 60 min at 37 C (agarose gel)” value is reported as “the two dilutions of Ugi indeed inhibit UDG (lanes D and G)” and the “digestion of DNA-dUTP by UDG (agarose gel), UDG 1/25” value is reported as “at the highest concentration of UDG, the UDG activity may be inhibited by Ugi at 1/20 000 but not at 1/30 000”. For the same protein, the “digestion of DNA-dUTP by UDG (agarose gel), UDG 1/50” value was “at the lowest concentration of UDG, the UDG activity is inhibited both by Ugi at 1/20 000 and at 1/30 000”.
